Test results: publication PMC7322011

Assay: plasma membrane level, fixed-cell imaging
Conditions: glycan lost; control: wild type

B1: peripheral myelin protein 22 (PMP22): N41Q (protein)
parent chain: MLLLLLSIIVLHVAVLVLLFVSTIVSQWIVGNGHATDLWQNCSTSSSGNVHHCFSSSPNEWLQSVQATMILSIIFSILSLFLFFCQLFTLTKGGRFYITGIFQILAGLCVMSAAAIYTVRHPEWHLNSDYSYGFAYILAWVAFPLALLSGVIYVILRKRE
localisation_or_trafficking: increases
